The values that follow come from the DeepSol protein solubility set.

This data set in a line: soluble on expression in E. coli; label from the status in PepcDB or PDB records.
On to “MSAIPAEESDQLLIRPLGAGQEVGRSCIILEFKGRKIMLDCGIHPGLEGMDALPYIDLIDPAEIDLLLISHFHLDHCGALPWFLQKTSFKGRTFMTHATKAIYRWLLSDYVKVSNISADDMLYTETDLEESMDKIETINFHEVKEVAGIKFWCYHAGHVLGAAMFMIEIAGVKLLYTGDFSRQEDRHLMAAEIPNIKPDILIIESTYGTHIHEKREEREARFCNTVHDIVNRGGRGLIPVFALGRAQELLLILDEYWQNHPELHDIPIYYASSLAKKCMAVYQTYVNAMNDKIRKQININNPFVFKHISNLKSMDHFDDIGPSVVMASPGMMQSGLSRELFESWCTDKRNGVIIAGYCVEGTLAKHIMSEPEEITTMSGQKLPLKMSVDYISFSAHTDYQQTSEFIRALKPPHVILVHGEQNEMARLKAALIREYEDNDEVHIEVHNPRNTEAVTLNFR”, for which the “soluble on expression in E. coli” value was “soluble”.
Regarding “NDRFQWTSTLNGTYLKNRVERLSGGENDFINGSSPAAGMVDYATIIKPGEAIGTFWGYEWTGLDEKGHDTYTDVDGNQMIDGGDRKVIGKANPDFTLGWNNSLSYKNWDLNLFFNGSFGAKRLNLVRYTMASAEGNSRFVTLADAYLKGFDKIGSSATYPSLTEGGNNLQPVSTKWLENADFLRLENISLSYTFPKKTTGFADLRLTFSCQNLFTITGYKGMDPAGTTFSNSSVDVDAGIDMGAYPSPRTFTFGLRMNF”, the “soluble on expression in E. coli” value is “not soluble”.
Regarding “MTEADDPKKKIRARIERDVYSVLLSFQEGATPNQVERRMDDTLGYTYVGKYVQAGVRDMAQLLREHKDVRQNLSGVFSVVANEDNQDLINLISKQKKKKKGGKGAKPIRAATSMGFHNKSGFGYAAHLRSPKPSFMYPASSARANPAKPQATGYRNTVRHPPVRPSTATGHSSFANRSAYSHHTTRSTTVGPVKIAPSATAQRPLLRQPVTVVQRLSSTVAVPVLQPGIDSKCMPSIVDFSNNVKRMMLLEYPADVHLSELTEIYDKHFDVSIDPLQLFSKSWMMFVKTSFKEWLQLGTDGRVEVKEPWFTNFGAALKKSMPPAPEKKKPTTLHEPTSSVASSSLPISQGFRYQIPVVRPIVSVAESMKGLTVSARSVMGTPKDLPGVSNPIKNTARGSNKPRNDLASSKASKDLVVPVMKTTCIKSLEDTSTSSSNPSTLQLSTASTSATDQKLPKMSFGRQIEKGSSIPGRHISLALTEIKNQKVIAASIVGKSAKTSTKVPSTTRSVVLPPMSKGPGLARSRNFSPQQSTTSSIDNECLEAINAALPSDKDSW”, the “soluble on expression in E. coli” value is “soluble”.
“MRKLKYQRDFFPLLHLNYGSNWRCGMDRIAYFKSLLEKNPDNPMVHYSLGLEYFKVKDYENAIKHLERYLELQEDEGAAYRTLAKCYEELGEFQKAIEVLEEGIRQAMKYNHPSMAQEYQQWIEELKGMAF”: the “soluble on expression in E. coli” value is “soluble”.
“KKTEWSREEEEKLLHLAKLMPTQWRTIAPIIGRTAAQCLEHYEFLLDKAAQRD”: the “soluble on expression in E. coli” value is listed as “soluble”.
For the sequence “HSLLPVDDAINGLSEEQRQLRQTMAKFLQEHLAPKAQEIDRSNEFKNLREFWKQLGNLGVLGITAPVQYGGSGLGYLEHVLVMEEISRASGAVGLSYGAHSNLCINQLVRNGNEAQKEKYLPKLISGEYIGALAMSEPNAGSDVVSMKLKAEKKGNHYILNGNKFWITNGPDADVLIVYAKTDLAAVPASRGITAFIVEKGMPGFSTSKKLDKLGMRGSNTCELIFEDCKIPAANILGHENKGVYVLMSGLDLERLVLAGGPLGLMQAVLDHTIPYLHVREAFGQKIGHFQLMQGKMADMYTRLMACRQYVYNVAKACDEGHCTAKDCAGVILYSAECATQVALDGIQCFGGNGYINDFPMGRFLRDAKLYEIGAGTSEVRRLVIGRAFNADFH”, the “soluble on expression in E. coli” value is “soluble”.
For “MAHHHHHHMDEGLPIDASEAQLEAIRREVAQYPLLSLSLPLNKESMIVKEMEHDDAYLAQTLSLFGASPVSTKQYDFGSIRYSRRDGNCFYRCAGFRLCELIVEHPERAAEYVALLKSREESLSRLFGLFVFDFTDALAEILKGVADKTITSVAQVYNRFISDDAAYVLAALRYLISAYLQEHEEEYEPFVSGLGYGAVRDYCNAEVELVDHESDNVQLAAFAKAFNVCIKVYALDRNAGNNITEYSFNGEDNDAGDRLVVGLLYMPGHYNLLGRGPG”, the “soluble on expression in E. coli” value is recorded as “not soluble”.
As for “MEPHSLRYNLTVLSWDGSVQSGFLTEVHLDGQPFLRCDRQKCRAKPQGQWAEDVLGNKTWDRETRDLTGNGKDLRMTLAHIKDQKEGLHSLQEIRVCEIHEDNSTRSSQHFYYDGELFLSQNLETKEWTMPQSSRAQTLAMNVRNFLKEDAMKTKTHYHAMHADCLQELRRYLKSGVVLRRTVPPMVNVTRSEASEGNITVTCRASGFYPWNITLSWRQDGVSLSHDTQQWGDVLPDGNGTYQTWVATRICQGEEQRFTCYMEHSGNHSTHPVPS”, the entry is “soluble”.
Take “MTELSAFPITRKWPAKHPERLQLYSLPTPNGVKVSIMLEEIGLAYEAHKVSFDNDDQLSPEFISLSANNKIPAILDPNGPGGQPLALFESGAILQYLAEKSGQLLSQDPAQRYQTLQWLMFQMGGIGPMFGQVGFFHFFAGKEYEDKRPRDRYVNESKRLLGVLDRHLKGRQWMAEEYSIADIAIFPWVRNLVERYNARDLVGFDQFKEVQRVLANFLERPAVQRGLKIPG”: the “soluble on expression in E. coli” value is “not soluble”.
For “MAQSVPPGDIQTQPGTKIVFNAPYDDKHTYHIKVINSSARRIGYGIKTTNMKRLGVDPPCGVLDPKEAVLLAVSCDAFAFGQEDTNNDRITVEWTNTPDGAAKQFRREWFQGDGMARRKNLPIEYNP” the value was “not soluble”.
As to “MAESLLIKDIAIVTENEVIKNGYVGINDGKISTVSTERPKEPYSKEIQAPADSVLLPGMIDIHIHGGYGADTMDASFSTLDIMSSRLPEEGTTSFLATTITQEHGNISQALVNAREWKAAEESSLLGAELLGIHLEGPFVSPKRAGAQPKEWIRPSDVELFKKWQQEAGGLIKIVTLAPEEDQHFELIRHLKDESIIASMGHTDADSALLSDAAKAGASHMTHLYNAMSPFHHREPGVIGTALAHDGFVTELIADGIHSHPLAAKLAFLAKGSSKLILITDSMRAKGLKDGVYEFGGQSVTVRGRTALLSDGTLAGSILKMNEGARHMREFTNCSWTDIANITSENAAKQLGIFDRKGSVTVGKDADLVIVSSDCEVILTICRGNIAFISKEADQI”, the “soluble on expression in E. coli” value is on record as “soluble”.
For “MCMDRIEKLIKKVSKPARLSVERCRLYTESMKQTEGEPMIIRQAKALKHVLENIPIQILDSELIVGTMLPNPPGAIIFPEGVGLRIINELDSLPNRETNRLMVDEEDAKVLREEIAPYWQRKTIEAFAFPLMPDIMQILYTGSVFVLTEIAGISHVAVNYPYLLRRGFRWFLEESERRIRALEESGVYEGEKYSFYQAAKIVSEAVINYGLRYSKLAEELAESEDGERREELLKIAEICRKVPAEKPETFWEAVQFVWLVQSALHQENYEQAISMGRIDQYLYPFFKKDIGEGRINRELAFDILANLWIKTNEIVPAFDSLLEQYFSGQATNQAVTIGGCDIYGNDATNELTYLMLEVTDRLRLRQPNVHVRINKGSPESFLKRLAEAISSGCNNLALFFDDAAVKALKNAEVDDRDALNYTTDGCVEIAPFGNSFTSSDAALINVAKALEYALNEGVDLQFGYEFGAKTEKPKFLEDLLEKLREQVSHIVKLVVRGSNVLSYANAEVKPTPLLSLCVEDCFEKGVDVSRGGARYNFTGIQAVGIADVGDSLVAIEGALNAGYSMDDIVEACRKNFVGYEKLHKLLLQSPKYGNDDDAADKYTKMVLEWYCEEVNRHRNFRGGKFAAGCYPMTTNVGFGFFTSALPSGRKSGEPLNPGVSPSTGMDREGVTAVINSASKLSYENLPNGASLTINLSSDVLGEKGDAVIEALIKSSMELGVMHVQFNILKEDLLRKAQQEPEKYRWLLVRVAGWSAYFVELSRPVQEEVIRRISCRI” the value was “soluble”; for “MLVDGKLVCVTGAGGYIASWIVKLLLERGYTVRGTVRNPTDPKNNHLRELQGAKERLTLHSADLLDYEALCATIDGCDGVFHTASPMTDDPETMLEPAVNGAKFVIDAAAKAKVKRVVFTSSIGAVYMNPNRDTQAIVDENCWSDLDFCKNTKNWYCYGKMLAEQSAWETAKAKGVDLVVLNPVLVLGPPLQSAINASLVHILKYLTGSAKTYANLTQVYVDVRDVALGHVLVYEAPSASGRYILAETALHRGEVVEILAKFFPEYPLPTKCSDEKNPRAKPYKFTTQKIKDLGLEFKPIKQSLYESVKSLQEKGHLPLPQDSNQNEVIIES”, “soluble”.
On to GSLLKPARFMCLPCGIAFSSPSTLEAHQAYYCSHRI, for which the “soluble on expression in E. coli” value was “soluble”.
For “MNVSFSTPVQNSTASRLALIQQAAARSGALPPAGQYRGSKLSPFDVSQMSGVSISMVERAKINGPEFVEELEWLRQQTTSRCFLDAEMWTNEILAHLPDKWCAPNTLNLYNQVSELVLDNTRSPMASPASNSLYAPGEDQMPTVKRNHTSRFAQSLIKNKEFRRAAFFLEKTMNGNKLDHFLHFRCLFLAYYQEHLENDAEGIERKTSFAEERSPFSLLYQRMEDKKLRENEDVWFEYLMGLLEVELGLKDLAEKSFRNVVIREPRIWPAWEALSRLIADIEDADKFVTSAEVKSLWMGDWFMTLVLQRFHQHSMAIQKAEQLVTRGMTGLPMIITKIAACSNARHDHDQAISNFEDVRKADPYRLGDLHLLSDSLYIRNDQKKLSTLAIEVYKVHKFRWETCCIVANYHAIRRDSEHAIKFFQRALRLNPGLAALWVLIGHEFMEMKNNAAACVSYRRAIEIDPADHRGWYGLGQMYDIMKMPAYALFYYQEAQKCKPHDSRLLVALGDIYSKLNRIEDAEKCFTGAYLFGDVEGNALWSLAKLHERYSDDNKAAQAFEVFLVVYELVTSAEEKIIYAIAFLANHFFKIEDFDKASEYATKCLAFETLCQEGNRLFREIAKIQARESRLPVEEAPGPSNASAAGGQEAMDTEEAPQEGGEEEMSEGEDDFSF” the value was “not soluble”; for “AEEPTGVFLKKPDSVSVETGKDAVVVAKVNGKELPDKPTIKWFKGKWLELGSKSGARFSFKESHNSASNVYTVELHIGKVVLGDRGYYRLEVKAKDTCDSCGFNIDVEAPR”, “soluble”.
As for “MEDKIGTTLTTRTVTGSLTPFIPIQDGDQLLVNGRSQDLYGWIYITELLDVINVYPLSLNNNSIVNFQPGTNIFFQLESSSYSSMRVPVARNVAIGKTTTLKGYVGLPDNAGIKFFDDSSIKK”, the “soluble on expression in E. coli” value is listed as “not soluble”.
Regarding “AESLSGLSLKLVKKEPRQLELTWAGSRPRNPGGNLSYELHVLNQDEEWHQMVLEPRVLLTKLQPDTTYIVRVRTLTPLGPGPFSPDHEFRTSPP”, the “soluble on expression in E. coli” value was “soluble”.
As to “MGSDKIHHHHHHVQHDQAPEVYSDLIQMVWALFTPSTVNFFSKGLCANAPFIMEMVDFEALKTVEEDVYLNAYNLTDHKMAIFGKDILDYEHFGATLAYPFIYPPAKVDGKLYLEGAAEDAFNFQGLLEHDEGIRTVVVFDAFGNEGYIQDPPNLWQAWGQNLILPLISLTRHDLAFFEHMLDDWNESHPARQDVELIKVTFPIPPEWLPTALDWSRSNLERMFELGYETGKKFVAEKGVRLGATLPPKPTPAKGRGGAAKKDDDAMFGGASIG”, the “soluble on expression in E. coli” value was “not soluble”.
For the sequence “MRVDRRTFLKATGAALGALALSGLPARAQGLEGEDLEHLEQALKEVFGKGFKDLTPSDAVKLNMPAIAESGANVPAEVEVALPKEQVKAIHLFADKNPTPHILAFMPMKAEPYYATRVRLAETTAIRAVVETQDGKLLLASASTRVTVGGCG”, the “soluble on expression in E. coli” value is “soluble”.
